Laboratory results reported in publication PMC6603146.

How the values were obtained:
[1] = target: human chemokine CCL5 (RANTES), commercial recombinant (human) (UniProt P13501); assay: ELISA; 50 pg chemokine mixed in solution with 2-400 ng recombinant M3 in 110 ul, 21 C, 1.5 h with gentle shaking, then applied to DuoSet sandwich ELISA plates; drop of OD492 against chemokine without M3 = % inhibition; IC25/IC50 = M3 concentration that removes 25 or 50% of the chemokine; three independent experiments
[2] = target: human chemokine CXCL8 (IL-8), commercial recombinant (human); assay: as above

Sequence of UniProt P13501 (P13501 24-91): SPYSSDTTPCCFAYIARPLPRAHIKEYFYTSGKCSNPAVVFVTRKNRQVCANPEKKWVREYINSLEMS

Substance: M3-E70A mutant of MHV-68 M3 protein, recombinant, C-terminal His-tag (natural protein)
- IC25 [1]: 3.5 nM
- IC50 [1]: 8.7 nM
- IC25 [2]: 11.5 nM

Substance: M3-T272G mutant of MHV-68 M3 protein, recombinant, C-terminal His-tag (natural protein)
- IC25 [1]: 30.2 nM
- IC50 [1]: > 90 nM
- IC25 [2]: 42.5 nM

Substance: wild-type M3 protein of murine gammaherpesvirus 68 (MHV-68), recombinant, C-terminal His-tag (natural protein)
- IC25 [1]: 7.1 nM
- IC50 [1]: 16.2 nM
- IC25 [2]: 8.7 nM
